Reference: US20260139065A1 (Novartis, published 2026)

Molecular target: T1, BAFF-R (B-cell activating factor receptor) (human, UniProt Q96RJ3 1-78, limits assumed)
T1 construct: also called BAFF receptor; BR3
T1 sequence (looked up): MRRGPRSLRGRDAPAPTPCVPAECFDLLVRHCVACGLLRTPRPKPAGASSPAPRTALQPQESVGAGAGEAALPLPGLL
Test: in vitro experiments (method not given); used as a parameter of the tissue receptor occupancy model

Kd: 46 pM
B1: ianalumab (antibody, human IgG1, kappa, V domains shown)
VH: QVQLQQSGPGLVKPSQTLSLTCAISGDSVSSNSAAWGWIRQSPGRGLEWLGRIYYRSKWYNSYAVSVKSRITINPDTSKNQFSLQLNSVTPEDTAVYYCARYDWVPKIGVFDSWGQGTLVTVSS
VL: DIVLTQSPATLSLSPGERATLSCRASQFISSSYLSWYQQKPGQAPRLLIYGSSSRATGVPARFSGSGSGTDFTLTISSLEPEDFAVYYCQQLYSSPMTFGQGTKVEIKR
notes: also called VAY736; anti-BAFF-R antibody
